B1: RA180 (nucleic acid)
DNA: GCGCGTCCTGGATTCGCGGAAACGCGTACATCCAGCTGGAGAATACCAGCATCGTCTTGATGCCCTTGGAAGTCTCACGAGTCCCAAATAGGACGAAACGCGC
modifications: expressed or natural sequence
B2: RA174 (nucleic acid)
DNA: GCGCGTCCTGGATTCGCGGAAACGCGTACATCCAGCCGGAATACCAGCATCGTCTTGATGCCCTTGGAAGTCCGTGACGAGTCCCAAATAGGACGAAACGCGC
modifications: expressed or natural sequence
B3: RA001 (nucleic acid)
DNA: GCGCGTCCTGGATTCGCGGAAACGCGTACATCCAGCTGACGAGTCCCAAATAGGACGAAACGCGCAGTGATACCAGCATCGTCTTGATGCCCTTGGCAGCACT
modifications: expressed or natural sequence
B4: RA177 (nucleic acid)
DNA: GCGCGTCCTGGATTCGCGGAAACGCGTACATCCAGCTGACGAGTCCCAAATAGGACGAAACGCAGTGATACCAGCATCGTCTTGATGCCCTTGGCAGCACTGC
modifications: expressed or natural sequence
B5: RA017 (nucleic acid)
DNA: GCGCGTCCTGGCGGAATACCAGCATCGTCTTGATGCCCTTGGAAGTCCGATTCGCGGAAACGCGTACATCCAGCTGACGAGTCCCAAATAGGACGAAACGCGC
modifications: expressed or natural sequence
B6: RA178 (nucleic acid)
DNA: GCGCGTCCTGGATTCGCGGAAACGCGTACATCCGGAATACCAGCATCGTCTTGATGCCCTTGGAAGTCCAGCTGACGAGTCCCAAATAGGACGAAACGCGC
modifications: expressed or natural sequence
B7: RA172 (nucleic acid)
DNA: AGAATACCAGCATCGTCTTGATGCCCTTGGAAGTCTGCGCGTCCTGGATTCGCGGAAACGCGTACATCCAGCTGACGAGTCCCAAATAGGACGAAACGCGC
modifications: expressed or natural sequence
B8: RA179 (nucleic acid)
DNA: GCGCGTCCTGGATTCGCGGAAACGCGTACATCCAGCTCGGAATACCAGCATCGTCTTGATGCCCTTGGAAGTCCGGACGAGTCCCAAATAGGACGAAACGCGC
modifications: expressed or natural sequence
B9: RA173 (nucleic acid)
DNA: GCGCGTCCTGGATTCGCGGAAACGCGTACATCCAGCTGACGAGTCCCAAATAGCGGAATACCAGCATCGTCTTGATGCCCTTGGAAGTCCGGACGAAACGCGC
modifications: expressed or natural sequence
B10: RA175 (nucleic acid)
DNA: GCGCGTCCTGGATTCGCGGAAACGCGTACATCCAGCTGACGAGTCCCAAATAGGACGAAACGCGCCGAGAATACCAGCATCGTCTTGATGCCCTTGGAAGTCTCG
modifications: expressed or natural sequence
B11: RA176 (nucleic acid)
DNA: GCGCGTCCTGGAATACCAGCATCGTCTTGATGCCCTTGGAAGTCCGGATTCGCGGAAACGCGTACATCCAGCTGACGAGTCCCAAATAGGACGAAACGCGC
modifications: expressed or natural sequence

test system: Renilla luciferase RNA; experiment: Barcoded aptazyme variant library screen: un-cleaved Renilla luciferase RNA by barcode read counts, HEK293-T cells; assay type: cell-based; conditions: un-cleaved Renilla luciferase RNA, HEK293-T cells cultured with 1 mM theophylline (ON) over without theophylline (OFF); barcode read counts, triplicate
Summary of the method: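 Barcode sequencing of cDNA versus DNA, normalized per aptazyme, gave the un-cleaved Renilla luciferase RNA fraction and fold-change with versus without theophylline (triplicates). Library: T3H48 ribozyme with one of seven theophylline aptamer variants inserted at each position, placed in the Renilla 3′ UTR of a dual-luciferase vector.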

Molecule	Fold change in RNA expression between the ON state and the OFF state
B1	1.3 fold
B2	1.3 fold
B3	>6 fold
B4	1.3 fold
B5	2.8 fold
B6	1.3 fold
B7	1.3 fold
B8	1.3 fold
B9	1.3 fold
B10	1.3 fold
B11	1.3 fold

Source: patent US20260167959A1, “APTAZYME-BASED REGULATABLE GENE EXPRESSION SYSTEMS” (REJUVENATE BIO INC, priority 2022, published 2026)
